The data set concerns the molecule itself. Kind of data set: cross-linking.

B1: L-Glutamate dehydrogenase from bovine liver (enzyme)
chain: not shown
A word on the stoichiometry N: it is the number of molecules, sites or subunits per partner or assembly. For B1, the “stoichiometry N” value was found to be 6.
